The MegaScale stability set (Tsuboyama et al. 2023)

B1: HEEH_KT_rd6_0007 (parent)
chain: SIEEEIKKAEEAKEKGKTFIHGDFVATTEELLDELLKRLRKKL
B2: EHEE_rd2_0191 (parent)
chain: TTEYTFTDDEEARRAIEELKKRGLTFRYEKHGTTWRVRVD

Variants of: B1
Assay: folding stability dG (cDNA display proteolysis); higher = more stable
Settings: PBS, room temperature

Folding stability dG [kcal/mol]: each site, then its substitutions
E10: Q 1.2; Y 1; D 0.699; K 1.04
E11: Q 1.06; M 1.05; L 1.1; K 0.817
L39: Q -0.059; H 0.059; Y 0.697
E5: G 0.897; I 2.4
T18: V 1.48; Y 1.37; G 1.23; D 0.988; A 1.3; P 1.32; Q 1.28
I6: Y 0.676; R 0.719
L36: I 1.62; V 0.838; T 0.179
R38: E 0.927; K 1.02; P -0.239; M 1.9
A9: T 0.679; S 0.634; K 0.705; Y 0.662
A26: S 0.724; N 0.638; L 1.03; R 0.603
S1: A 1.21; P 1.01
D33: Q 0.991
H21: Q 1.03; F 1.52; G 0.81; N 0.77
L35: T 0.38; N 0.287; Y 0.817; F 0.799; E 0.313; I 1.15
K15: A 1.33; R 1.19
K17: Q 1.47; G 1.48
T27: V 1.09; G 1.08; R 0.962; Y 1.62
G16: Y 1.12; V 0.73
K37: V 1.05; I 1.15
I2: F 0.811; P 0.683
V25: L 1.11; A 1.1; Y 1.23; P 0.68; R 0.704
E14: F 1.31; D 1.1
F19: H 0.937; Y 1.49; G 0.793; R 0.752; E 0.58
I20: A 1.03
D23: Q 1.14; G 1.16; N 1.4; E 1.16; T 1.36; V 1.38
F24: K 0.243; M 0.889; G 0.708; L 0.965; V 0.78; N 0.509
K41: Q 1.41; P 0.057; H 1.15
E30: A 1.41; I 0.954; Q 1.14; H 1.15; G 0.9
K13: V 0.79; G 0.684; P 0.543
L43: I 0.768; R 1.14; H 0.788; Y 0.992; E 0.224; Q 0.837; S 0.524; M 0.858; W 1.06
K7: P 0.656; V 0.878; R 1.6
E29: T 1.55; K 1.52; Y 1.18; I 1.76
A12: P 0.459; H 0.753; N 0.603; C 1.78
E3: L 1.52
L32: R 0.281; E 0.247; G 0.372; F 1.59; N 0.294
L31: E 2; Y 0.721; V 0.71
K8: L 1.23; Y 0.777; Q 1.22; N 0.961; G 0.922
E34: P 0.383
T28: F 1.32; C 1.98
R40: H 0.662; E -0.182; L 1.02
E4: P 0.777; W 1.27

Variants of: B2
Assay: as above
Settings: PBS, room temperature

Folding stability dG [kcal/mol], by site and new letter:
E3: M 2.14; R 1.12; S 1.55; W 3.02; G 0.724; H 1.73; F 2.44; L 2.25; V 2.56; C 2.81; N 1.39; P 0.266; K 0.77; Q 1.47; T 2.31; A 1.12; Y 2.62; D 1.58; I 2.52
A12: F 3.56; H 0.073; G 1.04; C 2.13
E10: W 1.93; T 2.02; N 2.12; Y 1.96; I 2; H 1.93; F 1.98; P 0.527; G 2.07; S 1.87; Q 1.95; M 1.96; A 2.09; V 2.02; R 1.99; L 1.98; D 2.15; K 1.98
F6: Y 1.96; G -0.522; L 0.168; I 0.614; T -0.433; M -0.111; W 0.741
T2: D 1.35; R 2.27; F 2.33; C 2.9; S 1.68; Q 2; G 1.42; L 2.3; N 1.58; M 2.2; A 1.82; I 2.5; E 1.76; W 2.62; K 2.01; P 0.931; V 2.4; H 2.08; Y 2.41
E11: G 1.46; Y 1.29; W 1.5; N 1.56; D 1.88; K 1.73; P 0.754; H 1.77; Q 2.1; L 1.84; T 2.31; V 1.85; M 2.02; I 1.78; A 2.16; R 1.54; C 2.14; F 1.37; S 2.43
T7: V 1.71; D 1.97; A 1.63; E 2.07; I 1.68; Q 1.88; C 2.34; H 2.13; W 1.89; L 1.83; G 1.37; P 0.677; S 1.75; N 1.97; Y 2.47; F 2.22; R 1.59; M 1.82; K 1.62
Y4: A 0.059; S 0.036; V 0.805; N -0.571; T 0.315; F 1.99; I 1.44; C 2.79; L 1.93; R 0.382; K 0.122; Q 0.601; H 0.788; W 2.22; M 1.79; E -0.036
D9: F 2.33; R 1.92; W 3.27; H 1.73; V 2; L 1.91; K 1.77; I 2.08; G 1.81; T 1.3; A 2.15; Q 1.8; P 2.3; N 1.63; Y 2.39; E 2.41; M 1.83; S 1.81
D8: R 1.39; L 1.08; I 1.2; M 0.896; G 1.33; H 1.32; K 1.37; V 1.36; F 0.882; S 2.44; Q 1.16; N 2.41; E 1.29; A 1.24; Y 0.721; W 0.65; T 2.29
T5: K 1.3; E 1.79; N 1.36; F 2.51; Q 1.64; I 2.71; D 0.819; V 2.54; H 1.67; G 0.086; Y 2.39; S 1.49; W 2.68; A 1.23; C 2.33; M 1.95; L 2.25; R 1.64
T1: S 2.05; H 2.1; L 2; W 3.2; I 2.44; D 1.75; A 2.06; K 1.78; Q 2.04; G 1.95; E 1.93; Y 2.93; F 2.69; P 2.15; R 1.87; N 1.62; M 2.21; V 2.44
